Consider 1 molecule from article PMC6992608, “A Single Step in vitro Bioassay Mimicking TLR4-LPS Pathway and the Role of MD2 and CD14 Coreceptors” (Frontiers in Immunology, 2020).

By stoichiometry N is commonly meant the number of molecules, sites or subunits per partner or assembly.

In this experiment the target is T1, Human recombinant toll like receptor 4 (rTLR4) (human, UniProt O00206 24-631).
T1 construct: toll like receptor 4 (TLR4), human, recombinant; No catalogue number or construct limits are printed; a soluble recombinant TLR4 is most likely the extracellular domain (surmised); also called MP-rTLR4; source: bought: R & D Systems
The experiment is described as follows: pull-down; rTLR4 held by its His tag on Ni-NTA magnetic beads; MD2 (Alexa Fluor 647), CD14 and LPS-Alexa Fluor 488 co-incubated in one tube in PBS pH 7.4 with 0.5% Tween 20 at RT; beads removed by magnet at 15, 30, 45, 60 and 90 min; unbound MD2 in the supernatant quantified by fluorescence, CD14 by silver staining. To be noted: both partners purified.

T1 sequence (O00206 24-631): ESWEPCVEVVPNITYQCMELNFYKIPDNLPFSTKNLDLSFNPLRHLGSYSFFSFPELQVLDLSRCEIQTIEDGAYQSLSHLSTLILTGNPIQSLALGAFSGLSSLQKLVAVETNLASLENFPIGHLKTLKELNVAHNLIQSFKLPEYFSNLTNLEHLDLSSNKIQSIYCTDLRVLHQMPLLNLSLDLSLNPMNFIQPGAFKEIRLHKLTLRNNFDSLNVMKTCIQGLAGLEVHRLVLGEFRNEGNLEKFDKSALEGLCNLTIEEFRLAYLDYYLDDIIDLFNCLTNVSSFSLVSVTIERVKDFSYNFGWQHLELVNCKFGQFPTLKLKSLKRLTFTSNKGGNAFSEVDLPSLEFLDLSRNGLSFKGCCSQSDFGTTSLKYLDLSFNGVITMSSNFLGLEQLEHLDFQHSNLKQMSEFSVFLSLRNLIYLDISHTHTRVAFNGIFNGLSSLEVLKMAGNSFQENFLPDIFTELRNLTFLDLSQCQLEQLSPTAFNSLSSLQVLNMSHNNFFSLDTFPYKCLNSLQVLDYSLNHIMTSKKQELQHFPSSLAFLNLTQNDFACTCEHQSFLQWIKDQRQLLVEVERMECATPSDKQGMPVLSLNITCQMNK

B1: Recombinant human myeloid differentiation-2 (MD2) protein (natural protein, UniProt Q9Y6Y9 19-160, looked up)
chain: QKQYWVCNSSDASISYTYCDKMQYPISINVNPCIELKRSKGLLHIFYIPRRDLKQLYFNLYITVNTMNLPKRKEVICRGSDDDYSFCRALKGETVNTTISFSFKGIKFSKGKYKCVVEAISGSPEEMLFCLEFVILHQPNSN
modifications: Alexa Fluor 647, on average 3 tags per MD2 molecule
notes: myeloid differentiation-2 (MD2, lymphocyte antigen 96), human, recombinant; No catalogue number is printed; source: bought: Abcam
Consider B1, for which the “stoichiometry N” value is 1.
